In patent publication EP4814000A1:

How the values were obtained:
[1] = target: 003m-P215S-S-3N; assay: flow cytometry, Expi293F cells, mRNA-LNP (RL151)
[2] = target: 003m-P215S-ΔF111 (RSV); assay: flow cytometry, Expi293F cells, mRNA-LNP (RL151)
[3] = target: 003m-P215S-ΔF111-1×GCN4t (RSV); assay: flow cytometry, Expi293F cells, mRNA-LNP (RL151)
[4] = target: 003m-P215S-1×GCN4t (RSV); assay: flow cytometry, Expi293F cells, mRNA-LNP (RL151)
[5] = target: 003m-P215S-ΔF111-S-3N; assay: flow cytometry, Expi293F cells, mRNA-LNP (RL151)
[6] = target: 003m-P215S (RSV); assay: flow cytometry, Expi293F cells, mRNA-LNP (RL151)
[7] = target: RSV B-003m-P215S-1×GCN4t-F190S (RSV B); assay: flow cytometry, Expi293F cells, Lipofectamine 2000-mRNA; mRNA RQ3
[8] = target: RSV B-003m-P215S-1×GCN4t-C486D-C489D (RSV B); assay: as above
[9] = target: RSV B-003m-P215S-1×GCN4t-G46S (RSV B); assay: as above
[10] = target: RSV B-003m-P215S-1×GCN4t (RSV B); assay: as above
[11] = target: RSV B-003m-P215S-1×GCN4t-D92E (RSV B); assay: as above
[12] = target: RSV B-003m-P215S-1×GCN4t-C102A-C362S (RSV B); assay: as above
[13] = target: RSV B-003m-P215S-1×GCN4t-F190S (RSV B); assay: flow cytometry, Expi293F cells, Lipofectamine 2000-mRNA; mRNA RQ1
[14] = target: RSV B-003m-P215S-1×GCN4t-C486D-C489D (RSV B); assay: as above
[15] = target: RSV B-003m-P215S-1×GCN4t-G46S (RSV B); assay: as above
[16] = target: RSV B-003m-P215S-1×GCN4t-C155S-C290S (RSV B); assay: as above
[17] = target: RSV B-003m-P215S-1×GCN4t-ori_linker (RSV B); assay: as above
[18] = target: RSV B-003m-P215S (RSV B); assay: as above
[19] = target: RSV B-003m-P215S-1×GCN4t (RSV B); assay: as above
[20] = target: RSV B-003m-P215S-1×GCN4t-D92E (RSV B); assay: as above
[21] = target: 003m-P215S-S-3N; assay: flow cytometry, Expi293F cells, Lipofectamine 2000-mRNA
[22] = target: 003M-P215S-L (RSV); assay: as above
[23] = target: 003m-P215S-2×GCN4t (RSV); assay: as above
[24] = target: 003M-P215S-S (RSV); assay: as above
[25] = target: 003M-P215S-L-3N (RSV); assay: as above
[26] = target: 003m-P215S (RSV); assay: as above
[27] = target: 007m-DS (RSV); assay: flow cytometry, Expi293F cells transfected with the antigen's mRNA
[28] = target: 009m-DS (RSV); assay: as above
[29] = target: 010m-DS (RSV); assay: as above
[30] = target: 008m-DS (RSV); assay: as above
[31] = target: 010m-Cys-ΔCys (RSV); assay: as above
[32] = target: 008m-Cys-ΔCys (RSV); assay: as above
[33] = target: 007m-Cys-ΔCys (RSV); assay: as above
[34] = target: 010m-Cys (RSV); assay: as above
[35] = target: 003m-ΔCys (RSV); assay: as above
[36] = target: 007m-Cys (RSV); assay: as above
[37] = target: 003m-DS (RSV); assay: as above
[38] = target: 009m-Cys-ΔCys (RSV); assay: as above
[39] = target: 009m-Cys (RSV); assay: as above
[40] = target: 008m-Cys (RSV); assay: as above
[41] = target: DS-Cav1 (RSV); assay: as above

Substance D25-AF488 (antibody) has an MFI [1] of 6730, an MFI [2] of 37300 and an MFI [3] of 682. For the same substance, the MFI [4] was 3880, the MFI [5] was 44800 and the MFI [6] was 16400. It also gave an MFI [7] of 13100, an MFI [8] of 7160 and an MFI [9] of 4220. The MFI [10] was 6190, the MFI [11] was 2110 and the MFI [12] was 16000. It also gave an MFI [13] of 13500, an MFI [14] of 8170 and an MFI [15] of 4570. For the same substance, the MFI [16] was 94600, the MFI [17] was 480 and the MFI [18] was 364000. For the same substance, the MFI [19] was 8770, the MFI [20] was 2250 and the MFI [21] was 48800. The MFI [22] was 5820, the MFI [23] was 2150 and the MFI [24] was 8920. For the same substance, the MFI [25] was 23400, the MFI [26] was 77200 and the MFI [27] was 159000. The MFI [28] was 154000, the MFI [29] was 118000 and the MFI [30] was 150000. It also gave an MFI [31] of 136000, an MFI [32] of 173000 and an MFI [33] of 369000. For the same substance, the MFI [34] was 252000, the MFI [35] was 16200 and the MFI [36] was 229000. It also gave an MFI [37] of 37100, an MFI [38] of 136000 and an MFI [39] of 199000. For the same substance, the MFI [40] was 196000 and the MFI [41] was 159000.
AM14-AF488 (antibody) gave an MFI [1] of 5920, an MFI [2] of 45200 and an MFI [3] of 821. It also gave an MFI [4] of 4180, an MFI [5] of 49100 and an MFI [6] of 20000. For the same substance, the MFI [7] was 11200, the MFI [8] was 7590 and the MFI [9] was 4100. It also gave an MFI [10] of 5060, an MFI [11] of 814 and an MFI [12] of 4430. It also gave an MFI [13] of 11100, an MFI [14] of 8130 and an MFI [15] of 4140. It also gave an MFI [16] of 48400, an MFI [17] of 175 and an MFI [18] of 496000. The MFI [19] was 7340, the MFI [20] was 763 and the MFI [21] was 42400. For the same substance, the MFI [22] was 4540, the MFI [23] was 1890 and the MFI [24] was 5620. For the same substance, the MFI [25] was 17500, the MFI [26] was 90100 and the MFI [27] was 144000. For the same substance, the MFI [28] was 147000, the MFI [29] was 107000 and the MFI [30] was 139000. It also gave an MFI [31] of 153000, an MFI [32] of 181000 and an MFI [33] of 430000. It also gave an MFI [34] of 333000, an MFI [35] of 8380 and an MFI [36] of 610000. For the same substance, the MFI [37] was 10100, the MFI [38] was 148000 and the MFI [39] was 247000. It also gave an MFI [40] of 258000 and an MFI [41] of 122000.
